{"source": "paper PMC5057104", "about": "“The unravelling of the complex pattern of tyrosinase inhibition” (Scientific Reports, 2016)", "proteins": {"B1": {"name": "TyrBm (tyrosinase from Bacillus megaterium) (Priestia megaterium) (protein)", "chain": "MSNKYRVRKNVLHLTDTEKRDFVRTVLILKEKGIYDRYIAWHGAAGKFHTPPGSDRNAAHMSSAFLPWHREYLLRFERDLQSINPEVTLPYWEWETDAQMQDPSQSQIWSADFMGGNGNPIKDFIVDTGPFAAGRWTTIDEQGNPSGGLKRNFGATKEAPTLPTRDDVLNALKITQYDTPPWDMTSQNSFRNQLEGFINGPQLHNRVHRWVGGQMGVVPTAPNDPVFFLHHANVDRIWAVWQIIHRNQNYQPMKNGPFGQNFRDPMYPWNTTPEDVMNHRKLGYVYDIELRKSKRSS", "notes": "made in house; host or cells: Escherichia coli BL21"}}, "key": {"[1]": {"substrate": "N[C@@H](Cc1ccc(O)cc1)C(=O)O", "assay": "Kinetic analysis of tyrosinase (Lineweaver-Burk plots)", "type": "biochemical, Bacillus megaterium", "conditions": "other: compound as TyrBm natural substrate; pH 7.4; 40.0 °C", "method": "(§1) Tyrosinase inhibitory activity was determined spectrophotometrically in 96-well plates with a final volume of 200 μl. First, 50 mM PBS buffer pH 7.4 and 0.01 mM CuSO4 were mixed with 6 μg ml^−1 of purified enzyme. Then, the mixture was incubated at 40 °C for 2 minutes. Finally, various concentrations of inhibitor were mixed with 1.2 mM L-tyrosine or 2 mM L-dopa and were added to the pre-incubated mixture. […] The reaction mixture was then monitored for L-dopachrome formation (ε = 3600M^−1 cm^−1) by measuring the absorbance at 475 nm. Specific activity was calculated as the ratio of the conversion rate and the total protein content as determined by the Bradford analysis method (Bio-Rad, Israel). All measurements were performed in seven replicates.\n(§2) The inhibition kinetics module of Sigma Plot 13.0 software was used (Systat Software, Inc., Richmond, CA, USA). All measurements were performed in 5-replicates."}, "[2]": {"substrate": "N[C@@H](Cc1ccc(O)c(O)c1)C(=O)O", "assay": "Kinetic analysis of tyrosinase (Lineweaver-Burk plots)", "type": "biochemical, Bacillus megaterium", "conditions": "other: compound as TyrBm natural substrate; pH 7.4; 40.0 °C", "method": "as §1, §2"}}}
{"protein": "B1", "values": [{"measurement": "Km", "setting": "[1]", "result": "82 ± 6", "unit": "µM"}, {"measurement": "Vmax", "setting": "[1]", "result": 3.62, "unit": "µmol/min/mg"}, {"measurement": "kcat", "setting": "[1]", "result": 2.1, "unit": "s⁻¹"}, {"measurement": "kcat/Km", "setting": "[1]", "result": 25600, "unit": "M⁻¹ s⁻¹"}, {"measurement": "Km", "setting": "[2]", "result": "240 ± 20", "unit": "µM"}, {"measurement": "Vmax", "setting": "[2]", "result": 30.3, "unit": "µmol/min/mg"}, {"measurement": "kcat", "setting": "[2]", "result": 17.8, "unit": "s⁻¹"}, {"measurement": "kcat/Km", "setting": "[2]", "result": 74200, "unit": "M⁻¹ s⁻¹"}]}
